In patent US20250084158A1 (ABL BIO, published 2025):
Where a chain is given by its changes, count along the chain named. Names and notes keep the numbering of the source.

Tests used:
human CLL-1 on cells [1] = target: T1, human CLL-1 on cells (human, UniProt Q5QGZ9 1-265); assay: FACS, PL21 cells (2nd Ab only 2.82)
T1 construct: whole, on cells; Overexpressed in HEK293E cells or carried by CLL1-expressing leukemic cell lines; the cell line is named under assay or readout; also called CLEC12A; huCLL1_293E
T1 sequence (looked up): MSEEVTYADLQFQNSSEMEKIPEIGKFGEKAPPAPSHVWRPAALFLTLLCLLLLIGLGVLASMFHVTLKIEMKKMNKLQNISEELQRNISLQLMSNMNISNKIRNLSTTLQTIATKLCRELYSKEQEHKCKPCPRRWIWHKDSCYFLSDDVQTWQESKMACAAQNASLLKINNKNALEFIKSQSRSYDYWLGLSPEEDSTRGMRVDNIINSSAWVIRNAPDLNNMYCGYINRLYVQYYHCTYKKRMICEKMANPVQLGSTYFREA
Procedure: (§1) To evaluate cell binding property, the chimeric antibody candidates of Example 1.2. were analyzed in CLL1 negative cells (HEK293E and Jurkat) and various CLL1 expressing cancer cells by using FACS.
(§2) Briefly, cells were incubated with antibodies at 4° C. for 1 hr. Firstly, the cells were washed with an assay buffer (1% BSA in PBS). Then, an anti-human IgG Fc conjugated with FITC (Fluorescein isothiocyanate) (Sigma, F9512) was added to each well and incubated at 4° C. for 1 hr. After wash, the MFI (Median Fluorescence Intensity) of FITC was measured by BD FACS Cal ibur (BD Biosciences).

human CLL-1 on cells [2] = target: T1, human CLL-1 on cells; assay: FACS, EOL-1 cells (2nd Ab only 2.53)
Procedure: as §1, §2

human CLL-1 on cells [3] = target: T1, human CLL-1 on cells; assay: FACS, OCI-AML2 cells (2nd Ab only 3.28)
Procedure: as §1, §2

hFc-Human CLL1 = target: T2, hFc-Human CLL1 (human); assay: ELISA, coated antigen
T2 construct: Human CLL1 with N-terminal human IgG1 Fc, made in-house; also called hFc-huCLL1
Procedure: Antibody candidates of Example 1.2. were analyzed to compare the ligand binding activity by ELISA, using huCLL1-His and hFc-huCLL1 as ligands.
(§3) Briefly, the antigen (ligand) was coated overnight at 4VC. The antigen coated plate was blocked with 1% BSA in PBS at 4VC for 2 hr and incubated with antibodies at 4° C. for 2 hrs. To find out the EC₅₀ (nM) of each antibody, 4-fold serial dilutions were prepared from an antibody solution of a concentration of 50 nM to 0.2 pM and diluted antibodies were treated to each well, and the plate was washed with 1×PBST. Then Goat anti-Human IgG F(ab′)2 cross-adsorbed secondary antibody conjugated with HRP (horseradish peroxidase) (Thermo, 31414) was added to each well and incubated at 4° C. for 1 hr. After wash, a TMB (3,3′,5,5′-tetramethylbenzidine) substrate (Sigma, T0440) was added to each well and the OD at 450 nm was measured by an ELISA plate reader.

hFc-Cynomolgus CLL1 = target: T3, hFc-Cynomolgus CLL1 (cynomolgus); assay: ELISA, 50 and 100 ng/well coated antigen; stronger than reference 6E7
T3 construct: Cynomolgus CLL1 with N-terminal human IgG1 Fc, made in-house
Procedure: as §3
Continuously, antibody candidates of Example 1.2. were analyzed to compare the ligand binding activities by ELISA, using 50 ng/well and 100 ng/well of hFc-Cynomolgus CLL1 as a ligandin the same manner as described above. Genentech's anti-CLL-1 antibody 6E7 was used as a reference.

human CLL-1 on cells [4] = target: T1, human CLL-1 on cells; assay: FACS, HL60 cells (2nd Ab only 5.09)
Procedure: as §1, §2

human CLL-1 on cells [5] = target: T1, human CLL-1 on cells; assay: FACS, U937 cells (2nd Ab only 4.77)
Procedure: as §1, §2

human CLL-1 on cells [6] = target: T1, human CLL-1 on cells; assay: FACS, huCLL1_293E cells (2nd Ab only 5.05)
Procedure: as §1, §2

human CLL-1 on cells [7] = target: T1, human CLL-1 on cells; assay: hybridoma screening, ELISA and FACS
human CLL-1 on cells [8] = target: T1, human CLL-1 on cells; assay: cell-based or functional assay

T3 sequence (chain, as listed by the source limits assumed): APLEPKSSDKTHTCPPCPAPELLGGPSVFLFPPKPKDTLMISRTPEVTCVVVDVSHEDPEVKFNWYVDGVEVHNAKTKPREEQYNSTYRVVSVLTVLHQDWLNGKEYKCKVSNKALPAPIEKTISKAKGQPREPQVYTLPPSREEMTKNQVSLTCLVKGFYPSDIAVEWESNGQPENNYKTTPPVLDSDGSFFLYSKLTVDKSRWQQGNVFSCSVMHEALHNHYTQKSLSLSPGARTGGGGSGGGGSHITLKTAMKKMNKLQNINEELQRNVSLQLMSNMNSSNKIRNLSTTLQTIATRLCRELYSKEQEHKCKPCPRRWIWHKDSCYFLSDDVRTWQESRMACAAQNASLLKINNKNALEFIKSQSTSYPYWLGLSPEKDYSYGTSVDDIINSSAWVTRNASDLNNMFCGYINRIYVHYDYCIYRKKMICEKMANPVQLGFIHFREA

B1: ch33C2(NA) (antibody, human IgG1, kappa, N297A, V domains shown)
VH: EVQLQQSGPELVKPGASMKISCKASGYSFTGYAMNWVKQSHGKNLEWIGLINPYNGGAMYNQKFKGKATLTVDKSTSTAYMELLSLTSEDSAVYYCARDYRYEGHLDYWGQGTTLTVSS
VL: QIVLTQSPVIMSASPGEKVTMTCSATSSVSYMHWYQQKSGTSPKRWIYDTSKLASGVPVRFSGSGSGTSYSLTISRMEAEDAATYYCQQWSSDSPTFGVGTKLELKR
notes: also called chimeric antibody of 33C2
Human CLL-1 on cells [1]
  MFI(FL1-H): 38.8
Human CLL-1 on cells [2]
  MFI(FL1-H): 3.6
Human CLL-1 on cells [3]
  MFI(FL1-H): 19.3
hFc-Human CLL1
  binding result: binds
hFc-Cynomolgus CLL1
  binding result: binds
Human CLL-1 on cells [4]
  MFI(FL1-H): 19.1
Human CLL-1 on cells [5]
  MFI(FL1-H): 48.1
Human CLL-1 on cells [6]
  MFI(FL1-H): 77.7

B2: 33C2 (mouse hybridoma clone) (antibody, V domains shown)
VH: B1 VH with E103D
VL: QIVLTQSPVIMSASPGEKVTMTCSATSSVSYMHWYQQKSGTSPKRWIYDTSKLASGVPVRFSGSGSGTSYSLTISRMEAEDAATYYCQQWSSDSPTFGVGTKLELK
notes: Mouse monoclonal antibody from a Balb/c hybridoma; also called murine 33C2
Human CLL-1 on cells [7]
  binding result: binds

B3: hu33C2 (VH3/VL6 (M12)) (antibody, V domains shown)
VH: QVQLVQSGAEVKKPGASVKVSCKASGYSFTGYAMNWVRQAPGQRLEWIGLINPYNGGAMYNQKFKGRATLTVDTSASTAYMELSSLRSEDTAVYYCARDYRYEGHLDYWGQGTLVTVSS
VL: EIVLTQSPATLSLSPGERATLSCSATSSVSYMHWYQQKPGQAPRRWIYDTSKLASGIPARFSGSGSGTSYTLTISSLEPEDFAVYYCQQWSSDSPTFGQGTKLEIK
Human CLL-1 on cells [8]
  ADCC reporter bioassay (luminescence), EC50: 0.141 nM

B4: 16C6 (mouse hybridoma clone) (antibody, V domains shown)
VH: EVQLQQSGPELVKPGASVKISCKASGYSFTGYYMHWVKQSHVKSLEWIGHVNPYNGATSFNRNFKDKASLTVDKSSSTAYMELHSLTSEDSAVYYCGRSADGYYERHFDYWGQGTTLTVSS
VL: DIVLTQSPASLAVSLGQRATISCKASQSVDYDGDSYMNWYQQKPGQPPKLLIYAASNLQSGIPARFSGSGSGTDFTLNIHPVEEEDAATYYCQQSDKDPLTFGAGTKLELK
notes: Mouse monoclonal antibody from a Balb/c hybridoma; also called murine 16C6
Human CLL-1 on cells [7]
  binding result: binds

B5: ch16C6(NA) (antibody, human IgG1, kappa, N297A, V domains shown)
VH: B4 VH with D101Y
VL: DIVLTQSPASLAVSLGQRATISCKASQSVDYDADSYMNWYQQKPGQPPKLLIYAASNLQSGIPARFSGSGSGTDFTLNIHPVEEEDAATYYCQQSDRDPLTFGAGTKLELKR
notes: also called chimeric antibody of 16C6
Human CLL-1 on cells [1]
  MFI(FL1-H): 38.6
Human CLL-1 on cells [2]
  MFI(FL1-H): 3.73
Human CLL-1 on cells [3]
  MFI(FL1-H): 19.5
hFc-Human CLL1
  binding result: binds
hFc-Cynomolgus CLL1
  binding result: binds
Human CLL-1 on cells [4]
  MFI(FL1-H): 18.5
Human CLL-1 on cells [5]
  MFI(FL1-H): 45.8
Human CLL-1 on cells [6]
  MFI(FL1-H): 115

B6: ch84A2 (N12S) (antibody, V domains shown)
VH: EVQLQQSGPELVKSGASVKMSCKASGYTFTSYVIHWVKQMPGQGLEWIGLFNPYNDDVNYNEKFKGKATLTSDKYSSTAYLDLSSLTSEDSAVYYCAREGVHYGRPWFGYWGQGTLVTVSA
VL: DIKMTQSPSSMSASLGERVTITCKASQDIKSYLNWFQQKPGKSPKTLIYRASRLVDGVPARFSGSESGQDYSLTISSLEFEDMGIYYCLQYDEFPLTFGAGTKLELK
Human CLL-1 on cells [8]
  ADCC reporter bioassay (luminescence), EC50: 0.416 nM

B7: ch84A2(NA/N12S) (antibody, human IgG1, kappa, N297A, V domains shown)
VH: B6 VH
VL: DIKMTQSPSSMSASLGERVTITCKASQDIKSYLNWFQQKPGKSPKTLIYRASRLVDGVPARFSGSESGQDYSLTISSLEFEDMGIYYCLQYDEFPLTFGAGTKLELKR
notes: Chimeric, human IgG1 N297A and human kappa; also called ch84C2; chimeric antibody of 84A2
Human CLL-1 on cells [1]
  MFI(FL1-H): 27.6
Human CLL-1 on cells [2]
  MFI(FL1-H): 3.36
Human CLL-1 on cells [3]
  MFI(FL1-H): 13
Human CLL-1 on cells [4]
  MFI(FL1-H): 14.5
Human CLL-1 on cells [5]
  MFI(FL1-H): 30.5
Human CLL-1 on cells [6]
  MFI(FL1-H): 72.5

B8: hu16C6 (VH1/VL1(M14)) (antibody, V domains shown)
VH: QVQLVQSGAEVKKPGASVKISCKASGYSFTGYYMHWVKQSHGQGLEWIGHVNPYNGATSFNRNFKDRASLTVDTSTSTVYMELSSLRSEDSAVYYCGRSAYGYYERHFDYWGQGTLVTVSS
VL: DIVMTQSPDSLAVSLGERATINCKASQSVDYDADSYMNWYQQKPGQPPKLLIYAASNLQSGVPDRFSGSGSGTDFTLTISSLQAEDVAVYYCQQSDRDPLTFGGGTKLEIK
Human CLL-1 on cells [8]
  ADCC reporter bioassay (luminescence), EC50: 0.13 nM
